Assay results: publication PMC4551919 (Nucleic Acids Research, 2015)
Blank lines part the entries; values can stand above or below the binder they belong to.

B2: UPF1, full length (natural protein)
chain: MSVEAYGPSSQTLTFLDTEEAELLGADTQGSEFEFTDFTLPSQTQTPPGGPGGPGGGGAGGPGGAGAGAAAGQLDAQVGPEGILQNGAVDDSVAKTSQLLAELNFEEDEEDTYYTKDLPIHACSYCGIHDPACVVYCNTSKKWFCNGRGNTSGSHIVNHLVRAKCKEVTLHKDGPLGETVLECYNCGCRNVFLLGFIPAKADSVVVLLCRQPCASQSSLKDINWDSSQWQPLIQDRCFLSWLVKIPSEQEQLRARQITAQQINKLEELWKENPSATLEDLEKPGVDEEPQHVLLRYEDAYQYQNIFGPLVKLEADYDKKLKESQTQDNITVRWDLGLNKKRIAYFTLPKTDSGNEDLVIIWLRDMRLMQGDEICLRYKGDLAPLWKGIGHVIKVPDNYGDEIAIELRSSVGAPVEVTHNFQVDFVWKSTSFDRMQSALKTFAVDETSVSGYIYHKLLGHEVEDVIIKCQLPKRFTAQGLPDLNHSQVYAVKTVLQRPLSLIQGPPGTGKTVTSATIVYHLARQGNGPVLVCAPSNIAVDQLTEKIHQTGLKVVRLCAKSREAIDSPVSFLALHNQIRNMDSMPELQKLQQLKDETGELSSADEKRYRALKRTAERELLMNADVICCTCVGAGDPRLAKMQFRSILIDESTQATEPECMVPVVLGAKQLILVGDHCQLGPVVMCKKAAKAGLSQSLFERLVVLGIRPIRLQVQYRMHPALSAFPSNIFYEGSLQNGVTAADRVKKGFDFQWPQPDKPMFFYVTQGQEEIASSGTSYLNRTEAANVEKITTKLLKAGAKPDQIGIITPYEGQRSYLVQYMQFSGSLHTKLYQEVEIASVDAFQGREKDFIILSCVRANEHQGIGFLNDPRRLNVALTRARYGVIIVGNPKALSKQPLWNHLLNYYKEQKVLVEGPLNNLRESLMQFSKPRKLVNTINPGARFMTTAMYDAREAIIPGSVYDRSSQGRPSSMYFQTHDQIGMISAGPSHVAAMNIPIPFNLVMPPMPPPGYFGQANGPAAGRGTPKGKTGRGGRQKNRFGLPGPSQTNLPNSQASQDVASQPFSQGALTQGYISMSQPSQMSQPGLSQPELSQDSYLGDEFKSQIDVALSQDSTYQGERAYQHGGVTGLSQY
B3: SMG-8 (natural protein)
chain: MAGPVSLRDLLMGASAWMGSESPGGSPTEGGGSAAGGPEPPWREDEICVVGIFGKTALRLNSEKFSLVNTVCDRQVFPLFRHQDPGDPGPGIRTEAGAVGEAGGAEDPGAAAGGSVRGSGAVAEGNRTEAGSQDYSLLQAYYSQESKVLYLLLTSICDNSQLLRACRALQSGEAGGGLSLPHAEAHEFWKHQEKLQCLSLLYLFSVCHILLLVHPTCSFDITYDRVFRALDGLRQKVLPLLKTAIKDCPVGKDWKLNCRPCPPRLLFLFQLNGALKVEPPRNQDPAHPDKPKKHSPKRRLQHALEDQIYRIFRKSRVLTNQSINCLFTVPANQAFVYIVPGSQEEDPVGMLLDQLRSHCTVKDPESLLVPAPLSGPRRYQVMRQHSRQQLSFHIDSSSSSSSGQLVDFTLREFLWQHVELVLSKKGFDDSVGRNPQPSHFELPTYQKWISAASKLYEVAIDGKEEDLGSPTGELTSKILSSIKVLEGFLDIDTKFSENRCQKALPMAHSAYQSNLPHNYTMTVHKNQLAQALRVYSQHARGPAFHKYAMQLHEDCYKFWSNGHQLCEERSLTDQHCVHKFHSLPKSGEKPEADRNPPVLYHNSRARSTGACNCGRKQAPRDDPFDIKAANYDFYQLLEEKCCGKLDHINFPVFEPSTPDPAPAKNESSPAPPDSDADKLKEKEPQTQGESTSLSLALSLGQSTDSLGTYPADPQAGGDNPEVHGQVEVKTEKRPNFVDRQASTVEYLPGMLHSNCPKGLLPKFSSWSLVKLGPAKSYNFHTGLDQQGFIPGTNYLMPWDIVIRTRAEDEGDLDTNSWPAPNKAIPGKRSAVVMGRGRRRDDIARAFVGFEYEDSRGRRFMCSGPDKVMKVMGSGPKESALKALNSDMPLYILSSSQGRGLKPHYAQLMRLFVVVPDAPLQIILMPQVQPGPPPCPVFYPEKQEITLPPDGLWVLRFPYAYVTERGPCFPPKENVQLMSYKVLRGVLKAVTQ

Key:
SMG-8 = biological target: B3; assay: cross-linking
UPF1, full length [1] = biological target: B2; assay: cross-linking
[2] = biological target: T1, SMG-1, full length, SBP-tagged (human, UniProt Q96Q15 1-3661); assay: cross-linking
[3] = biological target: T1, SMG-1, full length, SBP-tagged; assay: cryo-EM structure
SMG-1–8–9 complex = SMG-1–8–9 complex (human | , UniProt Q96Q15;Q8ND04;Q9H0W8); assay: negative-stain electron microscopy
UPF1, full length [4] = biological target: B2; assay: SEC

T1 sequence (Q96Q15 whole entry): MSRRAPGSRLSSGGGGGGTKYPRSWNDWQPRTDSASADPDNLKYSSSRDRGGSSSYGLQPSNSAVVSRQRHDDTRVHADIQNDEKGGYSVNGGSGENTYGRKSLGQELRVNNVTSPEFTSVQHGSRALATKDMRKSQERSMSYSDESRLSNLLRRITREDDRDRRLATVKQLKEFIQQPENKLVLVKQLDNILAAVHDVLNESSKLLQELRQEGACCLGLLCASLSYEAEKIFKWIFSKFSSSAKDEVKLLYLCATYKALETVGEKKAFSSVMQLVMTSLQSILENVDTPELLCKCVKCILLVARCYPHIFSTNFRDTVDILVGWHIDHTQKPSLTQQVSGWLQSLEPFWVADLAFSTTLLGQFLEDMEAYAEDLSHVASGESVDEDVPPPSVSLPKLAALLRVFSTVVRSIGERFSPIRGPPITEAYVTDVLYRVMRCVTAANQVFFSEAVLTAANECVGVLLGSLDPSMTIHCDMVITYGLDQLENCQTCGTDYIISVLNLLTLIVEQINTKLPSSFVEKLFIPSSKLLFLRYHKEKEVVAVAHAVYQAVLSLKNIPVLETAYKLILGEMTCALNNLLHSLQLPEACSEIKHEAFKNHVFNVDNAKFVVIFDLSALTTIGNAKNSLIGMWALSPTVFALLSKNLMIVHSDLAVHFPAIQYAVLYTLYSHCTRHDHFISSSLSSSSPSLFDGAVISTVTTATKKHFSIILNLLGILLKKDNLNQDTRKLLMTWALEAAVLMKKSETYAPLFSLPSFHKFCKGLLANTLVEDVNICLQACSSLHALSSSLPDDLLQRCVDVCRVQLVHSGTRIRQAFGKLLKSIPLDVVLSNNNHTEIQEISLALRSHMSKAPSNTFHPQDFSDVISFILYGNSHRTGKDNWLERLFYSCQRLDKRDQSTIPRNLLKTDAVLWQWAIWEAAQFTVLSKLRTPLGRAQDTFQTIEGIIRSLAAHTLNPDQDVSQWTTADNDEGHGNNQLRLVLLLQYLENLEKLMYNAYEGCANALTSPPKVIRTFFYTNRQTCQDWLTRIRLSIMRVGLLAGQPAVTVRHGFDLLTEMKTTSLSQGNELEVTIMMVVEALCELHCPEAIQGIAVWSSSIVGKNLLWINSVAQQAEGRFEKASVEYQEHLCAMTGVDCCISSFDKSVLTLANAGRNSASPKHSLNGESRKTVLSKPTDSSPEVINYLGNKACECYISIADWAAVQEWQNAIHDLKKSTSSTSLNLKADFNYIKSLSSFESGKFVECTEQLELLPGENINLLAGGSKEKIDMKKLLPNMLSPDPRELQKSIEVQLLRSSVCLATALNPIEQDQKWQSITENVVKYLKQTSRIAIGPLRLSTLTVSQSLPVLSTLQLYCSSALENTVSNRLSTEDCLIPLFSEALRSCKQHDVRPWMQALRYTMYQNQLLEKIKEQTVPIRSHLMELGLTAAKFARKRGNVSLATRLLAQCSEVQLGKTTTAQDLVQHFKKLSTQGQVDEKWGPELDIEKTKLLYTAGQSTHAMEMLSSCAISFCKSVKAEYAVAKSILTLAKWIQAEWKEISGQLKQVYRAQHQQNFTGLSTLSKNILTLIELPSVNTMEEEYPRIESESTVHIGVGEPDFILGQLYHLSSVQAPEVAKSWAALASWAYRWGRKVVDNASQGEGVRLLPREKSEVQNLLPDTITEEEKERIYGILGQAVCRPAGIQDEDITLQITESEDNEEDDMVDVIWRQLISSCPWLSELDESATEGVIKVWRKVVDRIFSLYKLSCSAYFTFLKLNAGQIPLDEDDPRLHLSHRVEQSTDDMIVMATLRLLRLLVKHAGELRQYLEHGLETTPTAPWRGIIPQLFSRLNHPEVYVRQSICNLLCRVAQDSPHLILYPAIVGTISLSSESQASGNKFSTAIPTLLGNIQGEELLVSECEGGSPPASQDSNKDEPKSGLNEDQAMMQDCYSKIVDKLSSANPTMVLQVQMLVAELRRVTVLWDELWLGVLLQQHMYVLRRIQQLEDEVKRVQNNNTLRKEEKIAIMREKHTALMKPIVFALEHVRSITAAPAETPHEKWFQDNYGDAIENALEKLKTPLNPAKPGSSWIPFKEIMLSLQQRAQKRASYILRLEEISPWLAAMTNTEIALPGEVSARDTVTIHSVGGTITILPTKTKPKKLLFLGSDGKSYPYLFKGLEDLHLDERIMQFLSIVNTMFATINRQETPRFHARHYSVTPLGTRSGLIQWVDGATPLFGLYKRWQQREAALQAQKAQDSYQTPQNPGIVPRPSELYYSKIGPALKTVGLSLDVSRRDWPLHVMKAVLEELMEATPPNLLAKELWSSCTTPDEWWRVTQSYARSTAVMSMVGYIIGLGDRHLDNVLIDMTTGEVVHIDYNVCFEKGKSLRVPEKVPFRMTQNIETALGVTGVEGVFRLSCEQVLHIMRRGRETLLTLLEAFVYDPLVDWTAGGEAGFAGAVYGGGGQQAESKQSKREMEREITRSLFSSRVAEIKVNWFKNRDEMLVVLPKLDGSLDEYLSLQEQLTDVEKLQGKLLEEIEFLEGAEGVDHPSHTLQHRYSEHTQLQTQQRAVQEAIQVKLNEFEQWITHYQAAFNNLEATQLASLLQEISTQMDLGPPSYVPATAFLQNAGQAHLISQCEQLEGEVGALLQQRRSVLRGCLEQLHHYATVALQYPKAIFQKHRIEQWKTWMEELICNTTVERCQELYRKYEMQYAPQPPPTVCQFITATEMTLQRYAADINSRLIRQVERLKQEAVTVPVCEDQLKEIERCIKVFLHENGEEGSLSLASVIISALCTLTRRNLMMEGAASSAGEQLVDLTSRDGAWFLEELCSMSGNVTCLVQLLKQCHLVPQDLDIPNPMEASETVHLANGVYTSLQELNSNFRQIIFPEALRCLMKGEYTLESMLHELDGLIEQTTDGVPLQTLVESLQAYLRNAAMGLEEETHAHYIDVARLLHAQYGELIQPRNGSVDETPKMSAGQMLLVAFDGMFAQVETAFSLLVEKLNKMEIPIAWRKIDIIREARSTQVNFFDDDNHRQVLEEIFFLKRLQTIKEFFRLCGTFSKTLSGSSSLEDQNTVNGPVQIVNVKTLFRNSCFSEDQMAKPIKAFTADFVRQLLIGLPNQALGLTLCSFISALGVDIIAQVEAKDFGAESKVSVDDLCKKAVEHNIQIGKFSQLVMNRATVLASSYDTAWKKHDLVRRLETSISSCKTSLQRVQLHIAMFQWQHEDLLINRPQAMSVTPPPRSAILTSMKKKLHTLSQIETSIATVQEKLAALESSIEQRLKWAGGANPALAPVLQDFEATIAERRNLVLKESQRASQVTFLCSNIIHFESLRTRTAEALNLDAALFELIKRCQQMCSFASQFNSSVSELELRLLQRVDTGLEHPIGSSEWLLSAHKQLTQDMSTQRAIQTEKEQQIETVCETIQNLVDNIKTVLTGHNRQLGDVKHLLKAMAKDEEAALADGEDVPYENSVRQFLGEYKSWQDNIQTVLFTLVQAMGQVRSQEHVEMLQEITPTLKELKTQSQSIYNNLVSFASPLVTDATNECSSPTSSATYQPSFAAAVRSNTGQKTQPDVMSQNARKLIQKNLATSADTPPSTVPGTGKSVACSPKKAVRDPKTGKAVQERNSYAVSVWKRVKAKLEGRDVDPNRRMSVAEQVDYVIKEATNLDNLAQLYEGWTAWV
SMG-1–8–9 complex, sequence (Q96Q15 whole entry, one chain of several): as the sequence (Q96Q15 whole entry) above

Binder: B2
- binding result [3]: binds
- binding result (SMG-1–8–9 complex): binds

Binder: B3
- binding result [2]: binds

Now from value to binder:

- binding result (SMG-8): binds
- binding result (UPF1, full length [1]): binds
- binding result [2]: binds
B1: SMG-9 (natural protein)
chain: MSESGHSQPGLYGIERRRRWKEPGSGGPQNLSGPGGRERDYIAPWERERRDASEETSTSVMQKTPIILSKPPAERSKQPPPPTAPAAPPAPAPLEKPIVLMKPREEGKGPVAVTGASTPEGTAPPPPAAPAPPKGEKEGQRPTQPVYQIQNRGMGTAAPAAMDPVVGQAKLLPPERMKHSIKLVDDQMNWCDSAIEYLLDQTDVLVVGVLGLQGTGKSMVMSLLSANTPEEDQRTYVFRAQSAEMKERGGNQTSGIDFFITQERIVFLDTQPILSPSILDHLINNDRKLPPEYNLPHTYVEMQSLQIAAFLFTVCHVVIVVQDWFTDLSLYRFLQTAEMVKPSTPSPSHESSSSSGSDEGTEYYPHLVFLQNKARREDFCPRKLRQMHLMIDQLMAHSHLRYKGTLSMLQCNVFPGLPPDFLDSEVNLFLVPFMDSEAESENPPRAGPGSSPLFSLLPGYRGHPSFQSLVSKLRSQVMSMARPQLSHTILTEKNWFHYAARIWDGVRKSSALAEYSRLLA

- binding result (UPF1, full length [4]): binds
B4: UPF2 (121–1227) (domain or fragment)
chain: MKEKEESIQLHQEAWERHHLRKELRSKNQNAPDSRPEENFFSRLDSSLKKNTAFVKKLKTITEQQRDSLSHDFNGLNLSKYIAEAVASIVEAKLKISDVNCAVHLCSLFHQRYADFAPSLLQVWKKHFEARKEEKTPNITKLRTDLRFIAELTIVGIFTDKEGLSLIYEQLKNIINADRESHTHVSVVISFCRHCGDDIAGLVPRKVKSAAEKFNLSFPPSEIISPEKQQPFQNLLKEYFTSLTKHLKRDHRELQNTERQNRRILHSKGELSEDRHKQYEEFAMSYQKLLANSQSLADLLDENMPDLPQDKPTPEEHGPGIDIFTPGKPGEYDLEGGIWEDEDARNFYENLIDLKAFVPAILFKDNEKSCQNKESNKDDTKEAKESKENKEVSSPDDLELELENLEINDDTLELEGGDEAEDLTKKLLDEQEQEDEEASTGSHLKLIVDAFLQQLPNCVNRDLIDKAAMDFCMNMNTKANRKKLVRALFIVPRQRLDLLPFYARLVATLHPCMSDVAEDLCSMLRGDFRFHVRKKDQINIETKNKTVRFIGELTKFKMFTKNDTLHCLKMLLSDFSHHHIEMACTLLETCGRFLFRSPESHLRTSVLLEQMMRKKQAMHLDARYVTMVENAYYYCNPPPAEKTVKKKRPPLQEYVRKLLYKDLSKVTTEKVLRQMRKLPWQDQEVKDYVICCMINIWNVKYNSIHCVANLLAGLVLYQEDVGIHVVDGVLEDIRLGMEVNQPKFNQRRISSAKFLGELYNYRMVESAVIFRTLYSFTSFGVNPDGSPSSLDPPEHLFRIRLVCTILDTCGQYFDRGSSKRKLDCFLVYFQRYVWWKKSLEVWTKDHPFPIDIDYMISDTLELLRPKIKLCNSLEESIRQVQDLEREFLIKLGLVNDKDSKDSMTEGENLEEDEEEEEGGAETEEQSGNESEVNEPEEEEGSDNDDDEGEEEEEENTDYLTDSNKENETDEENTEVMIKGGGLKHVPCVEDEDFIQALDKMMLENLQQRSGESVKVHQLDVAIPLHLKSQLRKGPPLGGGEGEAESADTMPFVMLTRKGNKQQFKILNVPMSSQLAANHWNQQQAEQEERMRMKKLTLDINERQEQED
